Target: NtFD1-Flag (Nicotiana tabacum)
Experiment: native gel or EMSA; extract of N. benthamiana leaves expressing NtFD1-Flag loaded directly onto a native PAGE gel, then western blotting; native protein marker GAPDH used for size

stoichiometry N: 4
Substance: NtFD1-Flag (natural protein)

Reference: publication PMC10583550
